We go through seven molecules from US20200353078A1 (AstraZeneca / MedImmune, published 2020).

B2: His10/Avi Human IL33-01 (ligand)
chain: MHHHHHHHHHHAAGLNDIFEAQKIEWHEAAIEGRSITGISPITEYLASLSTYNDQSITFALEDESYEIYVEDLKKDEKKDKVLLSYYESQHPSNESGDGVDGKMLMVTLSPTKDFWLHANNKEHSVELHKCEKPLPDQAFFVLHNMHSNCVSFECKTDPGVFIGVKDNHLALIKVDSSENLCTENILFKLSET
B3: His10/Avi Human IL33-11 (ligand)
chain: MHHHHHHHHHHAAGLNDIFEAQKIEWHEAAIEGRSITGISPITEYLASLSTYNDQSITFALEDESYEIYVEDLKKDEKKDKVLLSYYESQHPSNESGDGVDGKMLMVTLSPTKDFWLHANNKEHSVELHKSEKPLPDQAFFVLHNMHSNCVSFECKTDPGVFIGVKDNHLALIKVDSSENLSTENILFKLSET

Assay [1] has as its target T1, Human IL-33 Flag®His (human).
T1 chain: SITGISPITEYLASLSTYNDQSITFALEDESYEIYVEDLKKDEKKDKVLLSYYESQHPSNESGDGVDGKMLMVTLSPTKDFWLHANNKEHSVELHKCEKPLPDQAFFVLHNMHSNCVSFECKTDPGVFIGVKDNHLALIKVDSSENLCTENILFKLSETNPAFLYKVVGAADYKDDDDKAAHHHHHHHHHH
As to the kind of experiment: cell-based or functional assay.

The target of assay [2] is T1, Human IL-33 Flag®His. Nature of the assay: HTRF competition, IgG titrated against biotinylated human ST2-Fc. On the procedure: The ability of anti-IL-33 antibodies to inhibit the binding of FLAG®-His tagged IL-33 to the ST2 receptor was assessed in a biochemical HTRF® (Homogeneous Time-Resolved Fluorescence, Cisbio International) competition assay, the principles of which are described above.
(§1) Activity of purified IgG preparations were determined by competing a dilution series of the purified IgG against biotinylated human or mouse ST2.Fc for binding to FLAG® His-tagged human, cynomolgus or mouse IL-33.
(§2) Purified or unpurified anti-IL-33 antibody samples were tested for inhibition of FLAG®-His tagged IL-33 binding ST2-Fc by adding 10 microlitres of each dilution of antibody test sample to a 384 well low volume assay plate (Costar 3676). Next, a solution containing 4 nM biotinylated human or mouse ST2-Fc and 20 nM streptavidin XL665 detection (Cisbio International, 611SAXLB) was prepared and 5 microlitres of the mix added to the assay plate. This was followed by the addition of 5 microlitres of a solution containing 1.2 nM FLAG®-His tagged human, cynomolgus or mouse IL-33 combined with 1.72 nM anti-FLAG® cryptate detection (Cisbio International, 61FG2KLB). All dilutions were performed in assay buffer comprised of Dulbeccos PBS (Invitrogen, 14190185) containing 0.8 M potassium fluoride (BDH 103444T) and 0.1% BSA (Sigma A9576). Assay plates were incubated for 2 hour at room temperature followed by 16 hour at 4° C. before reading time resolved fluorescence at 620 nm and 665 nm emission wavelengths using an EnVision plate reader (Perkin Elmer).

For assay [3], the target named is T2, Cynomolgus IL-33 Flag®His (cynomolgus monkey).
T2 construct: C-terminal FLAG 10xHis tag, E. coli; also called Mature Cynomolugus IL-33; cyno IL-33 FH
T2 chain: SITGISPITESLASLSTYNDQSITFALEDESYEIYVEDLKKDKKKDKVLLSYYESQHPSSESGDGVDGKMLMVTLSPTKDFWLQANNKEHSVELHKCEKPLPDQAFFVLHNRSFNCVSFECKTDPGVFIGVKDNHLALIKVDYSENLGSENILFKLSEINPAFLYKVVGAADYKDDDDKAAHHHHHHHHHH
As to the kind of experiment: HTRF competition: purified IgG titrated against biotinylated human ST2-Fc for FLAG-His cynomolgus IL-33. On the procedure: as §1, §2

In assay [4] the target is T3, ST2 on human umbilical vein endothelial cells (human, UniProt Q01638 19-556).
T3 sequence (looked up): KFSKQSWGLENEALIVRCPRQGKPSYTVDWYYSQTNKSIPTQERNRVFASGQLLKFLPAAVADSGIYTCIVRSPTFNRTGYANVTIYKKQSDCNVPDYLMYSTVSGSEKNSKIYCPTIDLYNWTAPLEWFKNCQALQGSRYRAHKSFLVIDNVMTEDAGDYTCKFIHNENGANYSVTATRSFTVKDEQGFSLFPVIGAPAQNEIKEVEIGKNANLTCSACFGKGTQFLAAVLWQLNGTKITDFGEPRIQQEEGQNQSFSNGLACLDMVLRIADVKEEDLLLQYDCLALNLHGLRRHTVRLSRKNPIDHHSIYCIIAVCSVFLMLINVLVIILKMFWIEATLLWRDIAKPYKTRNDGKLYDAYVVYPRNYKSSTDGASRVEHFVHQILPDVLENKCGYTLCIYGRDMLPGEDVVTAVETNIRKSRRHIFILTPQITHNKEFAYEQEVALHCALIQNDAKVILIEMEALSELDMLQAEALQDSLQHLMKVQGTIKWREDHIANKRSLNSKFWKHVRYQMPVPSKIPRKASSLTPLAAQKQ
As to the kind of experiment: cell-based or functional assay.

Assay [5] has as its target T4, His10/Avi Cyno IL-33 (cynomolgus monkey).
T4 construct: also called Cynomolgus 10His Avitag IL-33; biotinylated His Avi cynomolgus IL-33
T4 chain: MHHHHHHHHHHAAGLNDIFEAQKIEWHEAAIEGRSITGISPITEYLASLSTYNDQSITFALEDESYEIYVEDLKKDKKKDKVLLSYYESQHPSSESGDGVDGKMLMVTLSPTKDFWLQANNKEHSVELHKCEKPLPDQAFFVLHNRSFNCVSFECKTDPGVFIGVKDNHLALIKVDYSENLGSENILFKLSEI
As to the kind of experiment: HTRF epitope competition, scFv titrated; competitor DyLight labelled 33_640027 IgG.

The target in assay [6] is B2. The description is as above.
In assay [7] the target is B3. The assay is described as above.
The target of assay [8] is T4, His10/Avi Cyno IL-33. Nature of the assay: HTRF epitope competition, scFv titrated; competitor DyLight labelled 33v20064 IgG. As for the experimental part: (§3) This was followed by the addition of 2.5 microlitres of a solution containing 0.8 nM biotinylated human IL-33-01 combined with 0.75 nM streptavidin cryptate detection (Cisbio International, 610SAKLB) for the human assay or a solution containing 4 nM biotinylated cynomolgus IL-33 combined with 1.5 nM streptavidin cryptate detection (Cisbio International, 610SAKLB) for the cynomolgus assay. All dilutions were performed in assay buffer containing 0.8 M potassium fluoride (VWR, 26820.236) and 0.1% bovine serum albumin (BSA, PAA, K05-013) in Dulbeccos PBS (Invitrogen, 14190185). Assay plates were incubated for 1 hour at room temperature and time resolved fluorescence was read at 620 nm and 665 nm emission wavelengths using an EnVision plate reader (Perkin Elmer). Data were analysed by calculating the 665/620 nm ratio followed by the % Delta F values for each sample. The 665/620 nm ratio was used to correct for sample interference using Equation 1. The % Delta F for each sample was then calculated using Equation 2. The negative control (non-specific binding) was defined by replacing biotinylated IL-33 combined with streptavidin cryptate detection with streptavidin cryptate detection only. The % Delta F values were subsequently used to calculate % specific binding as described in Equation 3.
(§4) Unique scFv were expressed again in bacteria and purified by affinity chromatography (as described in WO01/66754). Purified anti-IL-33 antibody samples were tested for potency of inhibition by competing a dilution series of the purified preparation against DyLight labelled 33v20064 IgG or DyLight labelled 33_640027 IgG for binding to biotinylated His Avi IL33-01, biotinylated His Avi IL33-11 or biotinylated His Avi cynomolgus IL-33. Methods are as described in the previous section.

Assay [9] addresses B2. The description is as above. As for the experimental part:
as §3, §4

For assay [10], the target named is B3. The assay is described as above. As for the experimental part: as §3, §4

B1: IL330125 IgG1 (antibody, V domains shown)
VH: EVQLVQSGAEVKKPGASVTVSCKASGYSFTDYYIHWVRQAPGQGPEWMGWINPNSGVTDFAQKFLGRVTMTRDTSISTAYMELSRLTSDDTALYYCARVAFVYYDSSAFQYWGKGTLVTVSS
VL: LPVLTQPPSVSVSPGQTATITCSADKLGDKYAAWYQQKPGQSPVLVIYQDRKRPSGIPERFSGSNSGNTATLIISGTQAMDEADYYCQAWDSNTGLYVFGTGTKLTVL
notes: Human IgG1, lambda constant
Take B1: in the assay with Human IL-33 Flag®His [1], the “IC50, human ST2 transfected HeLa NFkB luciferase reporter assay” value came to 332 nM. Further, the IC50 with Human IL-33 Flag®His [2] worked out at 210 nM. In addition, in assay [3], the binding result is “binds”.

Take B2: the “IC50 (nM) Untreated, HUVEC NFkB translocation assay” value in assay [4] turned out to be 0.13 nM.

As for B3, the “IC50 (nM) Untreated, HUVEC NFkB translocation assay” value in assay [4] turned out to be 0.49 nM.

B4: IL330126 IgG1 (antibody, V domains shown)
VH: EVQLVQSGAELKKPGASVKVSCKTSGYSFNTYGISWVRQAPGQGLEWMGWVSGDDGNINYAEKFQGRVAMTTDTSTTTAYMELWSLTSDDTAVYYCARVRRGSGWYKNYHYYMDVWGQGTMVTVSS
VL: QSVLTQPPSVSVSPGQTASVTCSGDRLGDKYASWYQQKPGQSPVLVIYQDRKRPSGIPERFSGSNSGNTATLTISGTQAMDEADYYCQAWDGSTALFGGGTKLTVL
notes: Human IgG1, lambda constant
On to B4, for which, in the assay with Human IL-33 Flag®His [1], the “IC50, human ST2 transfected HeLa NFkB luciferase reporter assay” value is 245 nM. Moreover, the IC50 in the assay with Human IL-33 Flag®His [2] turned out to be 226 nM. For the same molecule, the binding result in [3] was “binds”.

B5: 33_640027 scFv (scFv, V domains shown)
VH: EVQLLESGGDLVQPGGSLRLSCAASGFTFSSYAMSWVRQAPGKGLEWVSAIGGSGGSTYYADSVKGRFTISRDNSKNTLYLQMNSLRAEDTAVYYCARDLWMQLWGGGLRYPFGYWGQGTMVTVSS
VL: LPVLTQPPSVSVSPGQKASITCSGERIGDKYAAWYQQKPGQSPILVIYRDTKRPSGIPERFSGSNSGNTATLTISGTQDMDEADYYCQVWDSSTGVFGGGTKVTVL
notes: Single chain Fv
For B5, the IC50 in the assay with His10/Avi Cyno IL-33 [5] was determined as 38 nM; with His10/Avi Human IL33-01 [6] it was 3.8 nM; in the assay with His10/Avi Human IL33-11 [7] it was 2.9 nM; with His10/Avi Cyno IL-33 [8] it was 8.2 nM; with His10/Avi Human IL33-01 [9], 0.4 nM; with His10/Avi Human IL33-11 [10], 0.6 nM.

B6: 33_640050 scFv (scFv, V domains shown)
VH: EVQLLESGGGLVQPGGSLRLSCAASGFTFSSYAMSWVRQAPGKGLEWVSAISGSGGSTYYADSVKGRFTISRDNSKNTLYLQMNSLRAEDTAVYYCPRHKFMQLWGGGLRYPFGYWGQGTMVTVSS
VL: SYVLTQPPSVSVSPGQTASITCSGERMGDKYAAWYQQKPGQSPVLVIYQDTKRPSGIPERFSGSNSGNTATLTISGTQAMDEADYYCQVWDSSTGVFGGGTKVTVL
notes: Single chain Fv
In the case of B6, the IC50 in the assay with His10/Avi Cyno IL-33 [5] was 4.1 nM; in the assay with His10/Avi Human IL33-01 [6] it was 2.5 nM; with His10/Avi Human IL33-11 [7], 2.4 nM; with His10/Avi Cyno IL-33 [8] it was 1.4 nM; with His10/Avi Human IL33-01 [9], 0.2 nM; with His10/Avi Human IL33-11 [10], 0.4 nM.

B7: 33v20064 scFv (scFv, V domains shown)
VH: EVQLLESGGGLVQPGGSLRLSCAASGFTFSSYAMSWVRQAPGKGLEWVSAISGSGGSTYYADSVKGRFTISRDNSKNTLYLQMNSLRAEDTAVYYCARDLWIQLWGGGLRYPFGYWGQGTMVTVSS
VL: LPVLTQPPSVSVSPGQKASITCSGERMGDKYAAWYQQKPGQSPILVIYQDTKRPSGIPERFSGSNSGNTATLTISGTQDMDEADYYCQVWDSSTGVFGGGTKVTVL
notes: Single chain Fv
In the case of B7, the IC50 was 3430 nM with His10/Avi Cyno IL-33 [5]; 1500 nM with His10/Avi Human IL33-01 [6]; 1470 nM with His10/Avi Human IL33-11 [7]; 103 nM in the assay with His10/Avi Cyno IL-33 [8]; 12 nM with His10/Avi Human IL33-01 [9]; 26 nM with His10/Avi Human IL33-11 [10].
